Experimental data taken from publication PMC3901395, “Multivalent interactions of the SUMO-interaction motifs in RING finger protein 4 determine the specificity for chains of the SUMO” (Biochemical Journal, 2013).
Residue numbers refer to the chain shown, from its start. Each block holds one binder with its values, some of them ahead of it.

How the values were obtained:
Experiment in all cases: ITC (calorimetric titration)
Details in all cases: chain shown with the change
[1] = target: linear tri-SUMO, P61956
[2] = target: linear tetra-SUMO2 (4×SUMO2-ΔN11), P61956
[3] = target: linear di-SUMO2 (2×SUMO2-ΔN11), P61956
linear di-SUMO2 (2×SUMO2-ΔN11), P61956, sequence (P61956 other isoform, or with tags, fused parts or gaps mutant): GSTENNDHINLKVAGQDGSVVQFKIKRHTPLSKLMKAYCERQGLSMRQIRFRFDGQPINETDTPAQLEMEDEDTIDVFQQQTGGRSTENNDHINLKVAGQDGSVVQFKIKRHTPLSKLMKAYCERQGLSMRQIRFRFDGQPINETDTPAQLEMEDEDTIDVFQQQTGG

linear tri-SUMO, P61956, sequence (P61956 other isoform, or with tags, fused parts or gaps): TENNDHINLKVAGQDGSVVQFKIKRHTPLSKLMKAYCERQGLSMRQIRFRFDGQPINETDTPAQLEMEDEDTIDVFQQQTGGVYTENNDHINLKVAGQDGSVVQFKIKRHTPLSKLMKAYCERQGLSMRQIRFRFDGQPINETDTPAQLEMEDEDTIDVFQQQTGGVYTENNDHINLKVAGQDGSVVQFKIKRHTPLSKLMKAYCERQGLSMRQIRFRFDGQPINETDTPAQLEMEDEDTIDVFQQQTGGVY
linear tetra-SUMO2 (4×SUMO2-ΔN11), P61956, sequence (P61956 other isoform, or with tags, fused parts or gaps mutant): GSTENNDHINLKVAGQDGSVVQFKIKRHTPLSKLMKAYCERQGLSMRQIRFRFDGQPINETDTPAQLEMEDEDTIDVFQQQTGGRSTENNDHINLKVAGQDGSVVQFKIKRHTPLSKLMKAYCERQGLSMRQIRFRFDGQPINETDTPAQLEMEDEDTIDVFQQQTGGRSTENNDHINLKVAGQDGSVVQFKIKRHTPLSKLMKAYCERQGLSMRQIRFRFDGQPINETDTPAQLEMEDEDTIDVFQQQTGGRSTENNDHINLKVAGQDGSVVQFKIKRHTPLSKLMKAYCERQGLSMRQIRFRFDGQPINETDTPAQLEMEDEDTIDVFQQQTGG

Kd [1]: 25 µM | Kd [2]: 2.1 µM | Kd [3]: 118 µM
B1: RNF4 1–125 (RNF4-SIM domain, wt), P78317 SIM2mut (protein)
chain: MSTRKRRGGAINSRQAQKRTREATSTPEISLEAEPIELVETAGDEIAAAACESLEPVVVDLTHNDSVVIVDERRRPRRNARRLPQDHADSCVVSSDDEELSRDRDVYVTTHTPRNARDEGATGLR

Kd [3]: 56 µM
B2: RNF4 1–125 (RNF4-SIM domain, wt), P78317 SIM1/2mut (protein)
chain: B1 chain with I36A, E37A, L38A, V39A

Kd [2]: 22 µM | Kd [3]: 69 µM
B3: RNF4 1–125 (RNF4-SIM domain, wt), P78317 SIM3/4mut (protein)
chain: MSTRKRRGGAINSRQAQKRTREATSTPEISLEAEPIELVETAGDEIVDLTCESLEPVVAAAAHNDSAAAADERRRPRRNARRLPQDHADSCVVSSDDEELSRDRDVYVTTHTPRNARDEGATGLR

Kd [1]: 29 µM | Kd [2]: 2.2 µM | Kd [3]: 91 µM
B4: RNF4 1–125 (RNF4-SIM domain, wt), P78317 SIM3mut (protein)
chain: B3 chain with A67V, A68V, A69I, A70V

Kd [2]: 1.3 µM
B5: RNF4 1–125 (RNF4-SIM domain, wt), P78317 SIM1/4mut (protein)
chain: B3 chain with I36A, E37A, L38A, V39A, A59V, A60D, A61L, A62T

Kd [2]: 48 µM | Kd [3]: 110 µM
B6: RNF4 1–125 (RNF4-SIM domain, wt), P78317 SIM2/3mut (protein)
chain: B1 chain with V59A, D60A, L61A, T62A

Kd [2]: 9.4 µM | Kd [3]: 69 µM
B7: RNF4 1–125 (RNF4-SIM domain, wt), P78317 SIM2/4mut (protein)
chain: B1 chain with V67A, V68A, I69A, V70A

Kd [1]: 20 µM | Kd [2]: 2.8 µM
B8: RNF4 1–125 (RNF4-SIM domain, wt), P78317 SIM4mut (protein)
chain: B3 chain with A59V, A60D, A61L, A62T

Kd [2]: 2.4 µM | Kd [3]: 52 µM
B9: RNF4 1–125 (RNF4-SIM domain, wt), P78317 SIM1/3mut (protein)
chain: B3 chain with I36A, E37A, L38A, V39A, A67V, A68V, A69I, A70V
